Target: FLAG-tagged TgMLC1 C(8,11)S (Toxoplasma gondii)
Experiment: co-IP; anti-FLAG M2 affinity resin, Triton X-100 extract of parasites in FLAG lysis buffer (10 mM imidazole pH 7.4, 300 mM NaCl, 1 mM EGTA, 5 mM MgCl2, 1% TX-100, 2 mM DTT, 2 mM ATP), overnight at 4°C, eluted with FLAG peptide, quantitative Western blotting

Row | Substance | fold increase in the amount recovered, against WT TgMLC1
1 | TgELC1 (Toxoplasma gondii essential light chain 1) (natural protein) | 2 to 3 fold
2 | TgMyoA (Toxoplasma gondii class XIVa myosin heavy chain) (from UniProt O00934 1-831) | 2 to 3 fold
